Values joined by “and” are separate entries in the source; they are usually repeats but may differ in a detail not shown here. Identical values can stand only once.

One test has as its target T1, ALK6 ECD (Homo sapiens, UniProt O00238).
T1 chain: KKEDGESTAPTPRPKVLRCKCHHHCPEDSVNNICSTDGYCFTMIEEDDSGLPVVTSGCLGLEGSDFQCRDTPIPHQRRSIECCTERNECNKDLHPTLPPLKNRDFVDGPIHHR
The test can be described thus: BLI.

In test [1] the target is T2, ALK1 ECD (Homo sapiens, UniProt P37023). The experiment in a line: BLI. A general note: In BLI a coated tip is dipped into the sample, and binding shifts an interference pattern.
T2 sequence (P37023 22-118): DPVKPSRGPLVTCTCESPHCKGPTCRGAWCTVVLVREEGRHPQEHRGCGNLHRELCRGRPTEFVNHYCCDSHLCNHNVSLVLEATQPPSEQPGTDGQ
A further test concerns the target T3, ALK3 ECD (Homo sapiens, UniProt P36894).
T3 chain: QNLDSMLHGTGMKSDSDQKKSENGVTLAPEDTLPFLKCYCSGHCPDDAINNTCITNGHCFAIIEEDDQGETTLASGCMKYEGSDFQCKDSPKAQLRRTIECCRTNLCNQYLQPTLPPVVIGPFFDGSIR
The test can be described thus: BLI.

The target in a further test is T4, ALK5 ECD (Homo sapiens, UniProt P36897).
T4 chain: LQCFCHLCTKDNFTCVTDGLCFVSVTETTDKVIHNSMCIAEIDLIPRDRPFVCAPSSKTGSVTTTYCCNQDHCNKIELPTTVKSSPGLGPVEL
The test can be described thus: BLI.

A further test deals with T5, BMPR-II ECD (Homo sapiens, UniProt Q13873).
T5 chain: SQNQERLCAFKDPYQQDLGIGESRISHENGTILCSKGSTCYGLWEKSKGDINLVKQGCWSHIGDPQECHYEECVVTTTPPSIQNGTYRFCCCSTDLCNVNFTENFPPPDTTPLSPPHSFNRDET
The experiment in a line: BLI.

Another test has as its target ACTR-IIA ECD (Homo sapiens, UniProt P27037). The test can be described thus: BLI.
The target of a further test is T6, ACTR-IIB ECD (Homo sapiens, UniProt Q13705).
T6 chain: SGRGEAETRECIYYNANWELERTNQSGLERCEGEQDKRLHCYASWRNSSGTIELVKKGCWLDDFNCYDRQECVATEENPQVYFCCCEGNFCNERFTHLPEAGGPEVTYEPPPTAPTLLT
The experiment in a line: BLI.

The target of a further test is T7, ALK2/BMPR-II ECD (Homo sapiens, UniProt Q04771).
T7 chain 1: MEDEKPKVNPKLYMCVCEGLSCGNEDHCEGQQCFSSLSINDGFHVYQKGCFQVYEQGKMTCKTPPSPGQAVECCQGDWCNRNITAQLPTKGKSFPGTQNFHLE
T7 chain 2: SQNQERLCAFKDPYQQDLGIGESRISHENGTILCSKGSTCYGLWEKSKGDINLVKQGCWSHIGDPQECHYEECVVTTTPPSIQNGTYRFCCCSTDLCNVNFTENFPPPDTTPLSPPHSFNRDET
The experiment in a line: BLI.

For a further test, the target named is T8, ALK2 ECD (Homo sapiens, UniProt Q04771).
T8 chain: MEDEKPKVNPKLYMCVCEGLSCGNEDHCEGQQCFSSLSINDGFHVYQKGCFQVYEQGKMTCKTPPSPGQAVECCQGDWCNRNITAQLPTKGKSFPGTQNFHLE
The experiment in a line: BLI.

The next test deals with T9, ALK2/ACTR-IIB ECD (Homo sapiens, UniProt Q04771).
T9 chain 1: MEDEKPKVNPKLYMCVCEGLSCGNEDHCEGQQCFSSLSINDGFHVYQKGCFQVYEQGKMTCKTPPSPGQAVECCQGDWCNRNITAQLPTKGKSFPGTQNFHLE
T9 chain 2: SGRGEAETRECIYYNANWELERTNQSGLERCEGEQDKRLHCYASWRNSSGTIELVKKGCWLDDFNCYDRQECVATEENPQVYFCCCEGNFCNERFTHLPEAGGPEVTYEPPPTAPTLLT
The test can be described thus: BLI.

Test [2] has as its target T2, ALK1 ECD. The test can be described thus: SPR.

Sequence of ACTR-IIA ECD (P27037 20-135): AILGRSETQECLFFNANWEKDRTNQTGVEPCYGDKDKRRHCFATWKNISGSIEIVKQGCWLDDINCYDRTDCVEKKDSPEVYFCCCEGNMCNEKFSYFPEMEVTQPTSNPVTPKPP

B1: BMP-2 (protein)
chain: QAKHKQRKRLKSSCKRHPLYVDFSDVGWNDWIVAPPGYHAFYCHGECPFPLADHLNSTNHAIVQTLVNSVNSKIPKACCVPTELSAISMLYLDENEKVVLKNYQDMVVEGCGCR
For orientation: Kd means the constant that tells how readily two partners part at equilibrium. Higher therefore signals weaker binding. Regarding B1, the Kd was 0.5 nM with ALK6 ECD; 13 nM with ALK1 ECD [1]; 0.21 nM with ALK3 ECD; 5.8 nM with ALK5 ECD; 5.4 nM in the test with BMPR-II ECD.

B2: BMP-7 (protein)
chain: STGSKQRSQNRSKTPKNQEALRMANVAENSSSDQRQACKKHELYVSFRDLGWQDWIIAPEGYAAYYCEGECAFPLNSYMNATNHAIVQTLVHFINPETVPKPCCAPTQLNAISVLYFDDSSNVILKKYRNMVVRACGCH
Turning to B2, the Kd is 15 nM with ALK6 ECD; 23.1 nM in the test with ALK1 ECD [1]; 22.6 nM with ALK5 ECD; 5.5 nM in the test with BMPR-II ECD; 1.3 nM in the test with ACTR-IIA ECD; 7.1 nM in the test with ACTR-IIB ECD.

B3: BMP-4 (protein)
chain: SPKHHSQRARKKNKNCRRHSLYVDFSDVGWNDWIVAPPGYQAFYCHGDCPFPLADHLNSTNHAIVQTLVNSVNSSIPKACCVPTELSAISMLYLDEYDKVVLKNYQEMVVEGCGCR
In the case of B3, the Kd with ALK6 ECD was 3.1 nM; in the test with ALK1 ECD [1], 55.4 nM; with ALK2/BMPR-II ECD it was 55.8 nM and 90.7 nM; with ALK2 ECD it was 10.5 nM; with ALK5 ECD, 21.9 nM; with BMPR-II ECD, 56 nM. Further, the Kd with ACTR-IIA ECD was 21.4 nM; with ALK2/ACTR-IIB ECD it was 103 nM and 88.7 nM; in the test with ACTR-IIB ECD, 26 nM.

B4: BMP-9 (protein)
chain: SAGAGSHCQKTSLRVNFEDIGWDSWIIAPKEYEAYECKGGCFFPLADDVTPTKHAIVQTLVHLKFPTKVGKACCVPTKLSPISVLYKDDMGVPTLKYHYEGMSVAECGCR
With B4, the equilibrium dissociation constant (Kd) turned out to be 0.0134 nM in the test with ALK1 ECD [2]; 0.2 nM with ALK1 ECD [1]; 51 nM with ALK5 ECD; 0.8 nM with BMPR-II ECD; 1.7 nM with ACTR-IIA ECD; 1.4 nM with ACTR-IIB ECD.

These data come from PMC7614001 (2022).
